In one assay the target is T1, HLA-DR8 (DRB1*08:03) (human).
T1 construct: whole, on cells; MHC class II molecule on transfected L cells (L-DR8); also called L-DR8 (mouse L cells expressing it)
Description: concluded from IFN-gamma ELISPOT with peptide-pulsed L cells expressing single HLA class II molecules and blocking mAbs; no direct binding assay. The protocol: (§1) The immune response of Th cells to APCs pulsed with peptides were assessed by IFN-gamma ELISPOT assays (Human IFN-gamma ELISPOT kit, BD Biosciences) as described previously (Tomita Y, et al. Cancer Sci; 102: 697-705.). Briefly, the frequency of peptide-specific CD4⁺ T cells producing IFN-gamma per 3×10⁴ bulk CD4⁺ T cells upon stimulation with peptide-pulsed PBMCs (3×10⁴ cells/well), or 1×10⁴ bulk CD4⁺ T cells upon stimulation with peptide-pulsed HLA-DR or DP-expressing L-cells (5×10⁴/well) was analyzed. To determine restriction HLA molecules involved in antigen presentation, blocking of antigen-induced IFN-gamma production was investigated by adding anti-HLA-DR mAb (L243, Biolegend), anti-HLA-DP mAb, (B7/21, abcam), anti-human HLA-DQ mAb (SPV-L3, abcam), or anti-HLA class I mAb, (W6/32, abcam). All mAbs were used at a final concentration of 5 micro-g/ml. Cells cultured with HIV-derived peptides were used as negative control. Cells cultured with PMA (100 ng/ml; Sigma-Aldrich) and ionomycin (500 ng/ml; Sigma-Aldrich) were used as positive controls. All assessments of IFN-gamma ELISPOT assays were carried out in duplicate or triplicate, and results corresponded to mean values.

The target in a further assay is T2, HLA-DR15 (DRB1*15:02) (human).
T2 construct: whole, on cells; MHC class II molecule on transfected L cells (L-DR15); also called L-DR15 (mouse L cells expressing it)
The description is as above. How it is done: as §1

Consider one molecule from patent US20150191516A1 (ONCOTHERAPY SCIENCE, published 2015).

Take KWTEPYCVIAAVKIFPRFFMVAKQ (Synthetic 24-mer, purity >90%) [LY6K (119-142) long peptide]: the binding result with HLA-DR8 (DRB1*08:03) and in the assay with HLA-DR15 (DRB1*15:02) was “binds” each time.
